Substrate in the series: [O-][Cl+]O
Description: oxygen evolution in digitonin-permeabilised HeLa cells, optical oxygen meter, initial rates. The series is classed as biochemical, Nitrospira defluvii. As to conditions: 20 mM HEPES pH 7.2, 125 mM KCl, 2 mM K2HPO4, 1 mM MgCl2, glutamate, malate, 0.01% digitonin, air-saturated, chlorite 10 μM to 1 mM.

The Km is the concentration of substrate that gives half-maximal velocity.

B1: FLAG-NdCld (Nitrospira defluvii) (protein)
chain: ADREKLLTESGVYGTFATFQMDHDWWDLPGESRVISVAEVKGLVEQWSGKILVESYLLRGLSDHADLMFRVHARTLSDTQQFLSAFMGTRLGRHLTSGGLLHGVSKKPTYVAGFPESMKTELQVNGESGSRPYAIVIPIKKDAEWWALDQEARTALMQEHTQAALPYLKTVKRKLYHSTGLDDVDFITYFETERLEDFHNLVRALQQVKEFRHNRRFGHPTLLGTMSPLDEILEKFAQ
notes: codon-optimised; N-terminal FLAG kept; expressed in HeLa cells; 29 kDa; runs at 248 kDa (dimer of pentamers)
B1: the Km worked out at 560 µM.

The values above are taken from article PMC9618058, “A genetically encoded system for oxygen generation in living cells” (Proceedings of the National Academy of Sciences of the …, 2022).
